Assay results taken from patent US20200199244A1 (published 2020).
Positions count from the first letter of the chain named. Where two headings read alike, the source gives them in different places. Blank lines part the entries; values can stand above or below the binder they belong to.

What was measured:
human CD40 = human CD40 (human, UniProt P25942 21-277); test: cell-based or functional assay
[1] = target: T1, biotinylated human CD40 (BMS) (human, UniProt P25942 21-193, limits assumed, biotinylated (sites not given)); test: BIAcore SPR, immobilised biotinylated human CD40, 1:1 fit
T1 construct: Ligand immobilised on the streptavidin BIAcore chip
T1 sequence (P25942 21-193 limits assumed): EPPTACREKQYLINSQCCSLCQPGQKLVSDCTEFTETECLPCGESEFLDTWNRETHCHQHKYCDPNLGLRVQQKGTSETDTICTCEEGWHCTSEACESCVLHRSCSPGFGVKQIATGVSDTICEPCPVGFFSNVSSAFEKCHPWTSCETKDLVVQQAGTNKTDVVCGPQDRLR

[2] = target: T1, biotinylated human CD40 (BMS); test: as above; remark: listed apart in the source
Description: A BIAcore™ 3000 instrument (GE Healthcare) was used to analyze the binding kinetics of CD40-specific dAbs to CD40. […] A second flow cell without any ligand immobilized served as a reference flow-cell for inline referencing. An appropriate doubling dilution series of each dAb to be analyzed was prepared in HBS-EP buffer (0.01 M HEPES pH 7.4 with 0.15 M NaCl, 3 mM EDTA and 0.005% v/v Surfactant P20, GE Healthcare). One hundred and eighty microlitres of each dAb were injected in duplicate using the instrument's KINJECT function. Each dAb was injected across the CD40-immobilised and reference flow-cells in series with inline subtraction of the signal from the reference cell. The experiment was performed at 25° C. and a flow rate of 30 μl/min of HBS-EP. After each injection had been completed, the dAb was allowed to dissociate from the ligand in buffer for 300 s before regeneration with a 10 μl injection of 10 mM glycine pH 2.0. A reference injection of HBS-EP buffer blank (containing no analyte) was also injected under the same conditions, to serve as a second reference for subtraction from each analyte trace. BIAevaluation 4.1 software (GE Healthcare) was used to subtract both the reference flow-cell trace and the buffer blank trace from each analyte trace. The same software was used to perform a simultaneous, global fit of a 1:1 (Langmuir) kinetic model to the association and dissociation phases of the analyte dilution series traces.

[3] = target: T2, human CD40 (BMS, CY24FEB06-01) (human, UniProt P25942 21-193); test: ELISA RBA, competition with IZ-CD40L;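 further: Neutravidin-coated 384-well plate, dAb–human CD40 complex bound for 2 h at room temperature, absorbance read at 450 nm after HCl stop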
T2 construct: Soluble reagent of the bead and ELISA RBA; It is detected with an anti-human IgG (Fc) mAb, so it may be a CD40-Ig fusion
T2 sequence (P25942 21-193 limits assumed): as above

human CD40, sequence (P25942 21-277 limits assumed): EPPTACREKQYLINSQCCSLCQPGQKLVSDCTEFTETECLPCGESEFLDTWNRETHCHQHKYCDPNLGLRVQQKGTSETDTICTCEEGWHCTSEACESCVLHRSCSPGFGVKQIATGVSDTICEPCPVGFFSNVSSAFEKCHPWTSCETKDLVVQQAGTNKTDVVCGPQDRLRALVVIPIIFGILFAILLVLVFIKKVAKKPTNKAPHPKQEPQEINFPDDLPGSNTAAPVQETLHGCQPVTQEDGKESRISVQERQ

B10: BMS3h-38 (other)
VH: EVQLLESGGGLVQPGGSLRLSCAASGFTFEEEEMIWVRQAPGKGLEWVSAISGSGGSTYYADSVKGRFTISRDNSKNTLYLQMNSLRAEDTAVYYCAKEPFRFDYWGQGTLVTVSS
notes: domain antibody (dAb): single human VH domain
Kd [2]: 300 nM
koff [2]: 0.0062 s⁻¹
kon [2]: 21000 M⁻¹ s⁻¹

B11: BMS3h-37 (other)
VH: B10 VH with E31W, E32Y, I35Q, S54D, G56Y, S57R, P100L, F101G, R102Y
notes: as for B10
Kd [2]: 190 nM
koff [2]: 0.0036 s⁻¹
kon [2]: 19000 M⁻¹ s⁻¹

B13: BMS3h-38-3 (other)
VH: B10 VH with E6A, V48I, A97G
notes: as for B10
Kd [1]: 5.5 nM
koff [1]: 0.00041 s⁻¹
kon [1]: 75000 M⁻¹ s⁻¹

B14: BMS3h-41-1 (other)
VH: B10 VH with G9E, E30T, E32H, A50S, S54N, G56A, S57N, A88P, F101L
notes: as for B10
Kd [1]: 11 nM
koff [1]: 0.00056 s⁻¹
kon [1]: 51000 M⁻¹ s⁻¹

B15: BMS3h-37-5 (other)
VH: EVQLLESGGGLVQPGGSLRLSCAASGFTFEWYEMQWVRQAPGKGLEWISAISGDGYRTYYADSVKGRFTISRDNSKNTLYLQMNSLRAEDTAVYYCAKELGYFDYRVQGTLVTVSS
notes: as for B10
Kd [1]: 5.5 nM
koff [1]: 0.00022 s⁻¹
kon [1]: 39000 M⁻¹ s⁻¹

B16: BMS3h-56 (other)
VH: EVQLLESGGGLVQPGGSLRLSCAASGFTFRDYEMWWVRQAPGKGLERVSAINPQGTRTYYADSVKGRFTISRDNSKNTLYLQMNSLRAEDTAVYYCAKLPFIFDYWGQGTLVTVSS
notes: as for B10
Kd [2]: 180 nM
koff [2]: 0.004 s⁻¹
kon [2]: 23000 M⁻¹ s⁻¹

B18: BMS3h-37-2 (other)
VH: B15 VH with Q39R, I48V, R106W, V107G, Q108R
notes: as for B10
Kd [1]: 4 nM
koff [1]: 0.00041 s⁻¹
kon [1]: 100000 M⁻¹ s⁻¹

B19: BMS3h-38-1 (other)
VH: B10 VH with E6G, A97S
notes: as for B10
Kd [1]: 33 nM
koff [1]: 0.0011 s⁻¹
kon [1]: 32000 M⁻¹ s⁻¹

B20: BMS3h-38-2 (other)
VH: B10 VH with E6A, A97G, F103Y
notes: as for B10
Kd [1]: 12 nM
koff [1]: 0.00075 s⁻¹
kon [1]: 61000 M⁻¹ s⁻¹

B21: BMS3h-41 (other)
VH: B10 VH with E30T, E32Y, A50S, S54N, G56A, S57N, F101L
notes: as for B10
Kd [2]: 840 nM
koff [2]: 0.0083 s⁻¹
kon [2]: 9900 M⁻¹ s⁻¹

B27: BMS3h-56-7 (other)
VH: B16 VH with A92S, Y95H, L99P, D104G, Y105D, Q108P
notes: as for B10
Kd [1]: 3.5 nM
koff [1]: 0.00047 s⁻¹
kon [1]: 130000 M⁻¹ s⁻¹

B28: BMS3h-56-9 (other)
VH: B16 VH with K65M, I102M, Y105D, W106R
notes: as for B10
Kd [1]: 2.6 nM
koff [1]: 0.00039 s⁻¹
kon [1]: 150000 M⁻¹ s⁻¹

B29: BMS3h-43-1 (other)
VH: EVQLLESGGGLVQPGGSLRLSCTASGFTFNMYEMSWVRQAPGKGLEWVSGISRRGFTTYYADSVKGRFTISRDNSKNTLYLQMNSLRAEDTAVYYCAKEPITYDLRYARFDYSGQGTLVTVSS
notes: as for B10
Kd [1]: 140 nM
koff [1]: 0.00063 s⁻¹
kon [1]: 4400 M⁻¹ s⁻¹

B30: BMS3h-43-3 (other)
VH: B29 VH with S75F, L105M, S113G
notes: as for B10
Kd [1]: 19 nM
koff [1]: 0.00059 s⁻¹
kon [1]: 31000 M⁻¹ s⁻¹

B31: BMS3h-37-9 (other)
VH: B15 VH with A23V, K43N, R106W, V107G, Q108R
notes: as for B10
Kd [1]: 12 nM
koff [1]: 0.00018 s⁻¹
kon [1]: 15000 M⁻¹ s⁻¹

More lines, now with the values ahead:

hIZCD40L-driven Human B Cell Proliferation EC50 (human CD40): 1380 nM
B1: BMS3h-193-29 (other)
VL: DIQMTQSPSSLSASVGDRVTITCRASQTIERRLNWYQQKPGKAPKLLIYLATRLQSGVPSRFSGSGSGTDFTLTISSLQPEDFATYYCHQYESPPLTFGQGTKVEIKR

Kd [1]: 81 nM
koff [1]: 0.037 s⁻¹
kon [1]: 460000 M⁻¹ s⁻¹
B2: BMS3h-193-25 (other)
VL: B1 VL with K45R
notes: domain antibody (dAb): single human V kappa domain

hIZCD40L-driven Human B Cell Proliferation EC50 (human CD40): 3200 nM
B3: BMS3h-217 (other)
VL: DIQMTQSPSSLSASVGDRVTITCRASHFIGTLLSWYQQKPGKAPKLLITYGSLLQSGVPSRFSGSGSGTDFTLTISSLQPEDFATYYCGQGVLWPATFGQGTKVEIKR

hIZCD40L-driven Human B Cell Proliferation EC50 (human CD40): 11 nM
B4: BMS3h-217-2305 (other)
VL: B3 VL with T31S, Q38V, Y50W, G51A, L53Y, K103T

hIZCD40L-driven Human B Cell Proliferation EC50 (human CD40): 1950 nM
B5: BMS3h-217-17 (other)
VL: B3 VL with M4I, T5I, A96P

hIZCD40L-driven Human B Cell Proliferation EC50 (human CD40): > 700 nM
B6: BMS3h-217-31 (other)
VL: B3 VL with S67F, G91E

CHO-hCD40L-driven DC Activation IL-12 EC50 (human CD40): > 7700 nM
hIZCD40L-driven Human B Cell Proliferation EC50 (human CD40): 80 nM
B7: BMS3h-217-30 (other)
VL: B3 VL with Q38L, L53W

hIZCD40L-driven Human B Cell Proliferation EC50 (human CD40): 380 nM
B8: BMS3h-217-9 (other)
VL: B3 VL with Q38H, L53M

hIZCD40L-driven Human B Cell Proliferation EC50 (human CD40): 220 nM
B9: BMS3h-217-7 (other)
VL: B3 VL with T31S, Q38H

Kd [1]: 13 nM
koff [1]: 0.00018 s⁻¹
kon [1]: 15000 M⁻¹ s⁻¹
B12: BMS3h-198-1 (other)
VH: EVQLLESGGGLVQPGGSLRLSCAASGSTIAGYEMWWVRQAPGKGLERVSAISGSGGSTYYADSVKGRFTISRDDSKNTLYLQMNSLRAEDTAVYYCARDPYSFDYWGQGTLVTVSS
notes: as for B10

Kd [2]: 240 nM
koff [2]: 0.00038 s⁻¹
kon [2]: 1600 M⁻¹ s⁻¹
B17: BMS3h-198 (other)
VH: B12 VH with S27F, I29F, R98K
notes: as for B10

hIZCD40L-driven Human B Cell Proliferation EC50 (human CD40): 6500 nM
B22: BMS3h-202-5 (other)
VH: EVQLLESGGGLVQPGGSLRLSCAASGFTFPTAEMLWVRQAPGKGLEWVSSISASGGSTYYADSVKGRFTISRDNSKNTLYLQMNSLRAEDTAVYYCAKEPVSYVATFDYWGQGTLVTVSS

hIZCD40L-driven Human B Cell Proliferation EC50 (human CD40): 289 nM
B23: BMS3h-202-10 (other)
VH: B22 VH with S102Y

hIZCD40L-driven Human B Cell Proliferation EC50 (human CD40): 201 nM
B24: BMS3h-202-11 (other)
VH: B22 VH with Q39K, T91A

Kd [1]: 300 nM
koff [1]: 0.0013 s⁻¹
kon [1]: 4400 M⁻¹ s⁻¹
B25: BMS3h-202-5 (other)
VH: B22 VH
notes: as for B10

Kd [1]: 21 nM
koff [1]: 0.0017 s⁻¹
kon [1]: 79000 M⁻¹ s⁻¹
B26: BMS3h-131-2 (other)
VL: DIQMTQSPSSLSASVGDRVTITCRADSSILWALAWYQQKPGKAPKLLIESSSGLQSGVPSRFSGSGSGTDFTLTISSLQPEDFATYYCVQNAVWPGTFGQGTKVEIKR
notes: as for B2

hIZCD40L-driven Human B Cell Proliferation EC50 (human CD40): 64 nM
B32: BMS3h-198-1 (other)
VH: B12 VH

hIZCD40L-driven Human B Cell Proliferation EC50 (human CD40): 207 nM
B33: BMS3h-198-2 (other)
VH: B12 VH with L4P, S27F, I29F, V48I

hIZCD40L-driven Human B Cell Proliferation EC50 (human CD40): 34 nM
B34: BMS3h-198-24 (other)
VH: B12 VH with S27F, I29F, R98K, D99E, Y105S

hIZCD40L-driven Human B Cell Proliferation EC50 (human CD40): 20 nM
B35: BMS3h-198-28 (other)
VH: B12 VH with S27F, I29F, V37F, R98K, Y105N

hIZCD40L-driven Human B Cell Proliferation EC50 (human CD40): 9 nM
B36: BMS3h-198-5 (other)
VH: B12 VH with S27F, I29F, Y95H, R98K, D99E, F103Y

hIZCD40L-driven Human B Cell Proliferation EC50 (human CD40): 19 nM
B37: BMS3h-198-19 (other)
VH: B12 VH with S27F, I29F, M34L, W106R

EC50 [3]: 7.2 nM
B38: BMS3h-198-38 (other)
VH: B12 VH with S27F, I29F, M34L
notes: dAb, single VH
